Results from the DeepSol protein solubility set.

Assay: soluble on expression in E. coli; label from the status in PepcDB or PDB records

Sequence | soluble on expression in E. coli
MAFHMPLKELQPVDTSLPEHVVKGAVVIDKEFTIWNHRAVIPSNALHTVFITINLLEQKLTDVVKMAARSMNLSEDDSYGLMADKPKRFITDDNLNSLGSGFILTLCASPDHYVKRITEILTEGNNISQMENAVKTLDEFSLDPALIEAFYRCSSLELLFSLIRDDRVCMSSTLLSTCLRALSSMLELAVGDFTWKSVPNDVVVSMASLVTGKAKREEANTLLAALQMLEQLVIGDDTTRDWILEEVPIETLIRHVEKSDERIALCALSLMNSMIRRCPDDEKRFELIKSLEVVPFRNAVHSSLLRGGGGVRNLNAIEQLVEVQRSLISAYETSPPTDAEVQKILDIESSEDVSEEIREMWKSQIGEHRCGRLAAISMVQFAEKSPQDLRMLISENTMRIEGGKWQLIPMWMRCCDIAAELFRVIPGRDELDRLIVVLFSTETPFPAVFACIVHLFHRTWREMQAKGGEMEKVACVVLEQLRHVLKRREIQDVEELSADLETFSYRAMQEIWREEQLGKENIQLHSEAVIQLKSKLRPKMEELVRINHLNYLKLGAVFRKPQKSKSLAKLAFWHWKLDASEKMLTITGCDGENYVEGVQRDDIRQVWIKDIADVTNNDEIDRKASSSRFTSSPSTQMLRGIRVQLKTTNDMKEGEVLMALTSDETQSVIWLEGLAELIGSKAVKSETDAMVERMLKMELRVRLLNVKLTNPEEKPEIPPIPDDIKSFISKF | not soluble
MARYTKEDIFRLAKEENVKYIRLQFTDLLGVIKNVEIPVSQLTKALDNKMMFDGSSIEGFVRIEESDMYLYPDLDTWVIFPWTAEKGKVARLICDIYNADGTPFEGDPRNNLKRVLKEMEALGFSDFNLGPEPEFFLFKVDEKGNPTLELNDNGGYFDLAPMDLGENCRRDIVLELEEMGFEIEASHHEVAPGQHEIDFKYANAIRSCDDIQTFKLVVKTIARKHGLHATFMPKPLYGVNGSGMHCNLSLFKNGENVFFDQNGDLQLSDDARHFIAGILKHAPAFTAVANPTVNSYKRLVPGYEAPCYVAWSAQNRSPLVRIPASRGISTRVEVRSVDPAANPYLVMATLLAAGLDGIKNKLTPPAAVDRNIYVMTKEEREEAGIVDLPATLAQALVTLQSNEVISNALGDHLLEHFIEAKEIEWDIFRTQVHQWERDQYMSLY | not soluble
MGHHHHHHSHMEGTQETYTVAHEENVRFVSEAWQQVQQQLDGGPAGEGGPRPVQYVERTPNPRLQNFVPIDLDEWWGAAVPGENHQLFLVAAGRGRCYTADLSPGEKHGALPTHCAWLGAGHT | not soluble
MAHHHHHHMPSRRFNARRGMIAARRGFFTATSPCRQSRLVPFHELFAPLSSSSLPSSPRRFPVHSVCVDPPLGTLGEPSRSQGAGAEDGSPLSWLRENLQLLEDGRKSLNERRASMPEGSPQWPRYMFPSHCCEYIYDPSNDSKLAFVTSDNYCHLCHEPVEVAIQHCAWWDHVTRLAAIRLIAIYPRRWSPVAVLREANEVLPTAVMVSPRPHPFLSFSEAVDTDDVSLMDMSSCYVFEREAVVRRAELAAILRVLCTAKDADSCDDAEQRISSIIPVLRESLFLSANGTPAASSGERTFRAYISRQISVFLPPMAPEPTTRIQQRCWGRKNLEIMFDLLGVASLQRIAGAPVEAVTKNEKAAVLRQIIYELATVLSEGDAEFAETSCAKINGTSSVDAEVQTRLLAEMALQRLAHELIHLHTMLLMDQAYETYVKLGYPSEGMLEKSGFC | not soluble
MSLKGSLMPANVLFSARSELWPVYQPLISTYLREMGIDFDLRRDFPPEEVDYVVYAPNGGLRDFTPFTRLKAVLSLWAGVESIADNPTLTVPLARMVDHGLTQGMTEWVVGHVLRYHLGMDAHIHGLNGDWRQDVPPLASQRQVTILGLGALGEAAARALSALGFQVTGWSRSPKELPGIACLHGPDGLDQALARAEILVLLLPSTAATENTLNTQTLARLPRGARIINPGRGPLIDDDALLAALDSGQVGHATLDVFRIEPLPRDHPYWGHPNVTVTPHIASETRPETAAQVICEEGHHHHHH | soluble
MAWMEVRGKRFEILVRPELAFRYKEKGDVDLEDVLWTDTIYRDVRKGLKASPEEVKKAFGTSDPRRVAEKILKEGEIQLTEEQRRRLLEAKRRQIISYIARNAIDPTTGRPIPEARIEAALEEVRFPINLWRDAESQAVEAVRLIARVMPIRLARALLEVKIPPPHSGRAYQALMRMGEVKKADWLPDGSLKAELEIPAGAQVEVTSRIQALARGAAEVKVKKVAAAAAAALEHHHHHH | soluble
MTENVNSSGDSAIKSEDKEEVTVIQEGQAKVGFHGPVFYNPVQEFNRDLTVTVLRQFSADHQKWAEEQKQLKTEEEPPKKKNKLAINEDGKIRILDALSASGLRALRFSKEVPNVGFIMANDFSDNAVASIQENVKLNGVEDIVEAHFGDAVMTMMEHRGIDKRFHAVDLDPYGTASTFLDSAVQCVADRGILMVTCTDMAVLCGNTPEACYNKYDAVTTRMKCCHEVGLRILLRAIDSAANRYTRYIEPLVSISVDFYVRVFVRVHTGAFQAKQSGTKVGTVLVCSGCHSMEPLVLLKRGEGNQQSKYSIPTVRHSISGPGNRCIHCLLPLHQIGPIYLAPIHSKPFVTSLLERLKSTPEAERLGTHGRLQGVLTMVNEELDDVLYYEHNQMANVVKVSVPKSQSVRSAILNAGFKVSGSHCNPRAIKTNAPMHLLWDIYRQVAKDTSVDREKRLAKESAGYHILGQPITNTVNFTLHPGAIEQAKKENLVRFQCNKGKNWGPRQKAKGSVNSTKAGFQLTEHKE | not soluble
SLRLLLELKALNSIDKKQLSNYLIQGFIYNILKNTEYSWLHNWKKEKYFNFTLIPKKDIIENKRYYLIISSPDKRFIEVLHNKIKDLDIITIGLAQFQLRKTKKFDPKLRFPWVTITPIVLREGKIVILKGDKYYKVFVKRLEELKKYNLIKKKEPILEEPIEISLNQIKDGWKIIDVKDRYYDFRNKSFSAFSNWLRDLKEQSLRKYNNFCGKNFYFEEAIFEGFTFYKTVSIRIRINRGEAVYIGTLWKELNVYRKLDKEEREFYKFLYDCGLGSLNSMGFGFVNTKKNSAR | soluble
MPLPTELARHLTEEKIAFVQRSGLRAEVLEPGYVRLRMPGAGNENHIGSMYAGALFTLAELPGGALFLTSFDSARFYPIVKEMTLRFRRPAKGDIRVEARLDAERIRQLETEAGERGKAEYSLELQLTDEQGEVVAESAALYQLRSHARP | soluble
SLKIRERFSMVDLPVLIITAAIIGHDKYKAFHAGANDILQKPYHYSEFMARIQNLIMMKHTANQATRMEMAFLQSQIKPHFLYNVLNTIISLTHLDIEKAREVTEEFTNYLRMSFDFQNTSAISSFRHELSIINSYLSIEKTRFSNRLEVLFDIDEDIDFILPPLMIQPLVENAVLHGVSKKRGGGWIKLTAKKQSKNEYHIKVEDNGPGITPEKQIDLLSTDFDRSVGLKNINQRLKHFCGSELMISSTPDAGTSVSMLIHLAETTGSPKELKDTERT | soluble
MSKDSNKIIEQSREIGISIIMPLYNVEEVILETLESIHEQTFDSYEVLLIDDGSTDKTIEIVTEYIKDKPRFKLYTQPNGGPASARNHGLRLAIGMYICFVDSDDILPNYSLQLMYDGAISTGAKLITGATKRFNSEGEWFIPMHIQYNIAKPGMKTLLKNPELFYSIGPCAKLYHHSLIDGVFFPENIRYGEDQPFVLHALLQAKDIYTVEKVVYYYRLRDGESQSLTQSVDKDPIRILKSVFQIFDYGEEELKKNNTDYEVALKYYQRVSSVELWGALRAAIESKKSENQKIAFTMTLDWLKTKSDDFLNIIPSFRYFLLFSSIERVRYITKDNKENYRNLIGYLWSRQGEEAKIAFRKTYPIPMKAALQIIENNNWRDARKISFKFIVRRKFKAPILIRKISRGIIFRIATLMPRKKNQVILATERSTTLEGNLLAIYDYMFYNNMPQKVYVFLRKNRNWFEMFQLYYTLGRTKTIVLDDYYNKIYGLKFNKNTHVVQSWHATGAFKKFGFSALEGTDANTEEFETRAHSPYTDVLVSSEGIIPEYMEAFRKQANQIKPIGVPRTDVFFDDEYVNYTKEKYMKMYPQLRDKKILLYAPTFRGGPNERFNYSVVLDIAALKKELGDTHILILKFHPVIKNVSFNVEEDDPFILNLTLNNDINDLMLFSDALITDYSSVIFEFSLMNKPIYFFAYDIDDYLDERGFYFDYKATIPGEVFRDTPSLIEAVKSGLYNYDELEIFKKKFVGSLDGNSTKRFVETYIGKANEKVKDILEHHHHHH | soluble
TDLSAQKRLAADVLDVGKNRVWFNPERQGDIADAITREDVRELVDEGAIQAKDKKGNSRGRARERQKKRAKGHQKGAGSRKGKAGARQNSKEDWESRIRAQRTKLRELRDEGTLSSSQYRDLYDKAGGGEFDSVADLERYIDANHGDA | soluble
MGSDKIHHHHHHMAEIDFIGRYHNATKRDYVQRVVEYDKAECAATAKQWGFDYWDGDRRHGFGGMRYDGRWLPLAEDLVRHYGLKAGDKVLDIGCGKAFLLYEMTRACPGLTVAGLDISEYGINNAKEEVRPFLTLGNATRLPWPDRHFDLVISINTFHNLQIHELDQAVREMQRVSTGRGYICVESYRDESEKANLLYWQLTCESFHRPEGWRWVYDQAGYTGDHGFIYFQ | not soluble
MKRYPRDMRGHGPTPPDAAWPGGARIAVSIVLNYEEGGENCLLHGDAQSEAFLSDIAGAQPWPGQRHWNMESIYDYGARAGFWRLHRLFTGLNIPVTVYGVATALARSPEQVAAMKSAGWEIASHGLKWVEHRDMPEEEERRQIAEAIRLHAEVVGERPRGWYTGRCSVNTVRLTAEEGGFDWISDTYDDDQPYWLETGTRDQLVIPYTLEANDMRFATAPGYIEGEQFFTYLRDSFDTLYAEGCAGQAKMFSIGLHCRLIGRPGKIAGLKRFLDYARTHERVWFPCRGDIARHWHETHPHRRRPRPSRMDRESFVAHFGGIYEHSPWIAERAFELELGPAHDSPAGLANALARIFRSATPAERLSVLKAHPDLAGKLAQARRLTASSSFEQSSAGLDALTDAERAEFATLNADYVAKHGFPFIIAVRDHDKAGILAAFETRLAHDSATEFATACRQVERIAELRLQDMLKLEHHHHHH | not soluble
LFEMGLQRYLESGLRNESENLLVALVRGPAGLQLDDHRLSGAYQRPLSGHYFRMDLPQGHWRSRSLWDFELPQPGVGLHANLELGKTVQSLLMLTSEYRKFGKQISITVAQDYTPVRASFR | not soluble
MNEKQKRFADEYIMNGCNGKKAAISAGYSKKTAESLASRLLRNVNVSEYIKERLEQIQEERLMSITEALALSASIARGEPQEAYSKKYDHLNDEVEKEVTYTITPTFEERQRSIDHILKVYGAYIDKKEITQKNIEINIGEYDDES | not soluble
LLERLPVPVLAVQHDGVVVYSNRAFERMLDYPPNEVGNHLIGDLMQTASPGPSAVAELRESAGKLVALTHRDGSTVRAFVSESVLERHDDPVTLVCFHDVT | not soluble
MQKSIDDMINEVLAVKVEKLPKTQDFSDLQEVCASKLQIINKEMDEADRKLEETLEKRKLVEKQLEDLQEQYKVKEFAFSLQKEFQDELKKVAEEIF | not soluble
MASKKISLTKPKYQQIAVDVAEKIAEGKLHVGDKIHARSTLANQYQVSPETARKAIIVLVDLEIVKAKHGSGFYVASKEKAQDFVTQYQDVQTIAEIKEELLDSVAKQKEELTHFSSILDTLVEQTKRFDSFNPMNPYSLVLTEEAAYLEATISEMNFWQNTSATIIAIKHKEELLVSPGPYAKISLNDTLYFVGHDESTLQRVQNFFYP | not soluble
MSLPRARSTIAMCLALTALLGACGRSPQECMERAMYFESNRSSRDGMVAVGSVVMNRVESGQYPKSVCGVVGQRFQFAPRIMSRRMDSRSLPLVRETARSVLKGERHPMIGDAMFFHTAGHRFPYDNMHYVLVTGGNAFYERRPSALVTQPVPPQPMEGLTGWRGW | not soluble
